Reference: the supplement of paper PMC10567573

B1: ZBED3 (parent)
chain: GPGFHAGTSALWRHLRSAHRRELE
B2: KLHL14 (parent)
chain: CAVLDDSIYLVGGYSWSMGAYKSS

Variants of: B1
Assay: protein stability index of a GFP-peptide fusion (GPS, HEK-293T) (PSI 1-6); higher = more stable
Conditions: c terminus: a fixed tail appended
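Note: lentivirally expressed fusions sorted by FACS into six bins by GFP to DsRed ratio, PSI derived from sequencing read proportions per bin multiplied by bin number.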

Protein stability index of substitutions, site by site:
A10: K 2 | E 4.86 | H 2.63 | S 2.52 | W 2.38 | M 2.02 | R 3.4 | L 1.88 | C 2.32 | G 2.67 | P 2.28 | Y 2.31
L15: N 2.57 | K 3.15 | M 2.7 | S 2.21 | G 1.27 | F 2.16 | R 3.45 | T 2.05 | Q 1.78
S9: P 2.08 | V 1.92 | R 3.03 | I 1.74 | C 2 | H 2.53 | F 2.23 | A 2.11 | W 2.05 | K 2.68 | N 2.68 | T 3.06
R16: N 2.34 | Y 1.75 | W 1.66 | H 2.17 | G 1.73 | M 2.97 | A 2.45 | L 1.81 | V 1.84 | T 2.23 | Q 2.33 | F 2.07
G7: N 2.69 | W 1.52 | K 2.01 | Y 2.68 | A 2.62 | Q 2.47 | E 5.51 | V 2.19 | M 2.35 | D 3.25 | S 2.73 | R 2 | L 1.45 | C 1.75
E24: Y 2.42 | W 1.84 | K 3.2 | M 2.78 | T 2.35 | D 1.94 | F 2.32 | R 2.96 | N 1.91 | L 2 | V 2.11 | I 2.65
W12: D 2.92 | S 2.61 | C 1.45 | V 2.44 | F 2.1 | L 2.24 | M 1.84 | P 2.14 | K 3.18 | E 3.17 | I 2.07 | H 2.16 | A 3.38
R21: N 1.77 | H 1.73 | E 2.33 | S 1.84 | A 1.7 | Y 2.14 | C 4.08 | P 1.95 | F 1.02 | M 1.9 | W 2.07 | G 1.75 | T 2.49
R13: Q 2.72 | T 1.99 | L 1.79 | M 1.99 | S 1.36 | H 1.98 | C 1.47 | Y 2.1 | N 2.13 | A 2.8 | G 1.81 | P 2.12 | F 1.73 | W 1.93
G1: W 2.7 | L 2.52 | K 3.07 | Y 2.1 | E 3.11 | Q 3.51 | P 3.04 | T 3.33 | C 2.65 | D 3.87 | S 1.79
S17: T 2.65 | H 1.85 | D 2.9 | N 1.69 | K 2.51 | C 1.56 | Q 2.03 | I 2.17 | Y 2.38 | P 1.9 | E 2.78
L23: C 2.14 | M 2.32 | R 2.91 | N 2.03 | Q 2.13 | A 2.83 | W 1.88 | E 2.07
A18: D 2.02 | T 2.47 | I 2.12 | M 1.77 | Q 2.61 | Y 1.85 | V 1.99
L11: W 2.85 | E 2.52 | G 1.74 | Y 3.19 | F 1.7 | P 2.23 | M 2.64 | C 2.41 | T 2.16 | H 3.28 | Q 2.54
F4: M 2.68 | S 3.39 | Q 4.02 | E 2.83 | L 3.3 | D 3 | N 2.84 | G 3.01 | V 3
G3: W 1.96 | F 1.74 | R 3.96 | D 3.13 | K 3.26 | L 3.26 | H 3.25
E22: Y 1.47 | V 2.44 | D 2.06 | S 2.17 | P 1.77 | C 2.08 | T 2.23 | A 2.76 | F 2.43 | R 2.38
H19: R 2.68 | P 2.11 | A 2.74 | K 2.54 | W 2.14 | M 1.73 | F 2.84 | C 2.7 | S 2.29 | I 2.3
H5: P 4.37 | F 2.88 | Y 2.89 | L 2.24 | M 2.82 | I 2.15 | C 3.46 | G 2.62 | V 2.75 | T 3.16
R20: E 2.08 | P 2.54 | N 1.4 | K 2.54 | D 2.01 | C 2.27 | Y 1.62 | H 1.37 | G 2.23
H14: A 2.3 | E 2.33 | P 2.1 | F 1.68 | Y 1.98 | Q 2.51 | L 2.62 | D 2.13 | V 2.33 | W 1.74 | T 2.28 | K 2.2 | M 1.99
A6: Q 2.59 | H 2.12 | N 2 | Y 2.59 | S 2.14 | R 3.08 | K 2.3 | W 1.82 | C 1.65 | M 2.58 | F 1.83 | I 2.06 | D 3.52 | G 2.54 | E 3.04
P2: I 2.8 | V 2.77 | H 3.39 | S 2.92 | E 3.53 | L 2.5
T8: Y 2.37 | I 2.09 | M 2.37 | C 2.51 | W 2.23 | D 3.67 | A 1.75 | Q 1.98 | F 1.64 | P 2.88

Variants of: B2
Assay: as above
Conditions: c terminus: a fixed tail appended

Protein stability index: each site, then its substitutions
G19: W 3.29 | S 2.83 | V 1.97 | Y 3.83 | T 2.01
Y21: S 2 | I 2.99 | F 3.42 | V 2.6 | A 2.91 | E 1.45 | M 2.65 | P 2.44 | Q 2.35 | G 1.08 | L 2.68 | K 2.14 | R 2.45 | T 1.24 | N 2.25 | D 2.43 | H 2.64
A20: Y 2.9 | P 1.33 | V 2.02 | C 2.64 | Q 3.05 | T 3.02 | H 2.31 | D 2.27 | F 2.88 | N 3.33 | W 2.87 | R 1.74 | K 1.11
S24: Q 2.2 | D 1.06 | N 2.53 | A 4.41 | C 2.32 | F 2.96 | G 1.65 | E 2.32 | T 3.12 | Y 3.04 | R 1.75 | K 2.36 | I 3.41
K22: C 1.85 | Q 1.44 | I 2.6 | V 3.73 | T 2.27 | D 3.84 | R 3.14 | A 3.59 | P 1.79 | N 2.69 | L 3.43 | M 4.12 | G 2.66 | H 3.04
S23: Y 1.98 | M 2.48 | G 1 | C 2.2 | L 5.74 | Q 2.73 | H 1.57 | K 2.43 | D 1.96 | I 2.8 | T 2.72 | A 2.92 | N 1.79 | P 1.58
